Reference: patent publication US20060172935A1 (published 2006)
Values belong to the molecule of their own block, whether it stands above or below them.

Columns and labels:
[1] = target: PKR2 stably expressed in Chinese Hamster Ovary cells (CHO-PKR2); assay: cell-based or functional assay
mouse PK2 receptor = target: T1, mouse PK2 receptor (mouse, UniProt Q8K458 1-381); assay: PK2 receptor binding assay with radioiodinated ligand (FIG. 11)
T1 construct: G-protein coupled receptor; also called PKR2; mouse PKR2
T1 sequence (Q8K458 whole entry): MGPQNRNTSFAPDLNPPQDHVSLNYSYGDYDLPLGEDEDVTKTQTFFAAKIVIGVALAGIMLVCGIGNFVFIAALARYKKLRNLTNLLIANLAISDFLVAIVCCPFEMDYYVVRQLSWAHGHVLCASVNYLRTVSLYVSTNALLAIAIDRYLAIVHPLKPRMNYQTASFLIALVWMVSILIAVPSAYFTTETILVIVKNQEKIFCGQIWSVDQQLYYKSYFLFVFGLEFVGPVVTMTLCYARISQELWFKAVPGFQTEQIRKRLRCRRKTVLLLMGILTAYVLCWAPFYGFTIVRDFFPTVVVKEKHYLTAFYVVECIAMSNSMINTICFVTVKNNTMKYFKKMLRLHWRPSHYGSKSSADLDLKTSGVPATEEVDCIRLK
Text: An exemplary assay for determining binding of detectably labeled PK2, PK1 or PK2/PK1 chimera to PK2 receptor or PK1 receptor is the radioligand filter binding assay described in Li et al. Molecular Pharmacology 59:692-698 (2001)). […] A variety of other low- and high-throughput assays suitable for detecting selective binding interactions between a receptor and a ligand are known in the art. Such assays include, for example, fluorescence correlation spectroscopy (FCS) and scintillation proximity assays (SPA) reviewed in Major, J. Receptor and Signal Transduction Res. 15:595-607 (1995); and in Sterrer et al., J. Receptor and Signal Transduction Res. 17:511-520 (1997)). Binding assays can be performed in any suitable assay format including, for example, cell preparations such as whole cells or membranes that contain PK2 receptor or PK1 receptor, or substantially purified PK2 receptor polypeptide or PK1 receptor, either in solution or bound to a solid support.

EC50, calcium mobilization [1]: 7.3 nM
fold stimulation of CLOCK:BMAL1-mediated transcription of the 2.8 kb PK2 promoter (luciferase) [1]: 4 fold
Molecule: purified recombinant mouse PK2 (from UniProt Q9QXU7 27-128) (ligand)

Kd (mouse PK2 receptor): ~1 nM
B1: 125I-human PK2 (iodinated human prokineticin 2) (ligand)
chain: AVITGACDKDSQCGGGMCCAVSIWVKSIRICTPMGKLGDSCHPLTRKVPFFGRRMHHTCPCLPGLACLRTSFNRFICLAQK
modifications: radioiodinated with 125I (residue not stated for this assay)
notes: also called iodinated PK2
